Results published in patent US20190262431.

Target: active (phosphorylated) human Syk (Merck Millipore) (UniProt P43405)

## catalytically inactive human C373A Cbl-b^29-483 mutant (recombinant, GST fusion protein)
  in vitro poly-ubiquitination of active Syk (Western blot): did not show Syk poly-ubiquitination activity
